According to the supplement of paper PMC10567573:

B1: BTBD1 (parent)
chain: TSAEIELPDVEPAAFLALLRFLYS

Variants of: B1
Experiment: protein stability index of a GFP-peptide fusion (GPS, HEK-293T) (PSI 1-6); higher = more stable
Settings: c terminus: a fixed tail appended
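Also: lentivirally expressed fusions sorted by FACS into six bins by GFP to DsRed ratio, PSI derived from sequencing read proportions per bin multiplied by bin number.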

Row | Variant | protein stability index
1 | F15D | 2.73
2 | F15L | 1.31
3 | F15K | 1.71
4 | F15C | 2.3
5 | F15W | 2.89
6 | F15G | 2.23
7 | F15T | 1.78
8 | F15R | 2.2
9 | F15Y | 2.56
10 | F15P | 2.6
11 | F15N | 1.98
12 | F15A | 1.69
13 | F15V | 1.75
14 | F15E | 2.31
15 | F15Q | 1.83
16 | F15S | 2.04
17 | F15M | 1.43
18 | L19G | 1.89
19 | L19V | 1.72
20 | L19W | 1.98
21 | L19E | 2.31
22 | L19P | 2.11
23 | L19T | 1.76
24 | L19Q | 1.51

Row | Variant | protein stability index
25 | L19Y | 2.49
26 | L19M | 2.05
27 | L19F | 1.58
28 | L19C | 1.94
29 | L19N | 1.77
30 | L19K | 2.07
31 | L19A | 1.9
32 | L19R | 1.84
33 | L19S | 1.69
34 | L19H | 2.05
35 | L19I | 2.37
36 | L19D | 3.54
37 | R20E | 1.77
38 | R20M | 2.54
39 | R20W | 3.4
40 | R20Y | 2.09
41 | R20Q | 2.05
42 | R20V | 3.16
43 | R20N | 1.71
44 | R20A | 2.08
45 | R20P | 2.01
46 | R20S | 1.93
47 | R20G | 2.67
48 | R20T | 4.67

Row | Variant | protein stability index
49 | R20F | 2
50 | R20H | 1.79
51 | R20L | 3.18
52 | R20C | 1.19
53 | R20K | 1.29
54 | R20D | 1.38
55 | L16M | 1.8
56 | L16T | 1.87
57 | L16D | 1.88
58 | L16R | 1.64
59 | L16P | 1.94
60 | L16C | 1.99
61 | L16K | 1.47
62 | L16E | 2.06
63 | L16V | 1.81
64 | L16Y | 1.53
65 | L16I | 1.62
66 | L16H | 1.74
67 | L16F | 2.06
68 | L16N | 2.01
69 | L16G | 1.64
70 | L16A | 2.19
71 | L16Q | 2.31
72 | L16W | 1.96

Row | Variant | protein stability index
73 | L16S | 1.69
74 | S24R | 2.44
75 | S24M | 2.37
76 | S24P | 2.61
77 | S24V | 2.1
78 | S24D | 1.89
79 | S24W | 1.89
80 | S24Q | 2.33
81 | S24K | 1.52
82 | S24F | 2.33
83 | S24T | 1.97
84 | S24L | 2.39
85 | S24Y | 1.94
86 | S24H | 1.72
87 | S24G | 2.86
88 | S24E | 1.69
89 | S24A | 2.19
90 | S24N | 1.78
91 | S24I | 2.32
92 | S24C | 2.12
93 | E11D | 1.69
94 | E11Y | 2.14
95 | E11F | 1.68
96 | E11I | 2.38

Row | Variant | protein stability index
97 | E11S | 1.73
98 | E11K | 2.75
99 | E11Q | 1.56
100 | E11N | 2.15
101 | E11P | 1.98
102 | E11G | 2.44
103 | E11W | 1.69
104 | E11R | 2.11
105 | E11L | 1.88
106 | E11M | 1.32
107 | E11H | 1.91
108 | E11C | 1.1
109 | E11T | 2.4
110 | E11V | 1.52
111 | A13K | 2.43
112 | A13C | 1.88
113 | A13H | 2.16
114 | A13V | 2.02
115 | A13Y | 1.59
116 | A13M | 2.02
117 | A13Q | 1.76
118 | A13I | 1.8
119 | A13W | 2.18
120 | A13N | 2.5

Row | Variant | protein stability index
121 | A13R | 1.73
122 | A13G | 1.77
123 | A13L | 1.81
124 | A13S | 2.01
125 | A13P | 2.05
126 | A13T | 2.17
127 | A13D | 2.02
128 | A13F | 1.55
129 | A13E | 1.85
130 | A14W | 2.2
131 | A14D | 2
132 | A14F | 1.91
133 | A14T | 1.8
134 | A14L | 1.4
135 | A14Q | 1.77
136 | A14Y | 1.8
137 | A14R | 1.87
138 | A14I | 1.72
139 | A14P | 2.05
140 | A14N | 1.92
141 | A14S | 2.41
142 | A14C | 1.84
143 | A14K | 1.63
144 | A14G | 2.04

Row | Variant | protein stability index
145 | A14V | 2.28
146 | A14H | 2.04
147 | A14M | 1.47
148 | A14E | 1.66
149 | L22C | 1.64
150 | L22M | 2.23
151 | L22S | 1.16
152 | L22G | 1.72
153 | L22P | 2.26
154 | L22F | 2.61
155 | L22N | 2.06
156 | L22I | 1.75
157 | L22Q | 1.5
158 | L22A | 1.71
159 | L22K | 1.91
160 | L22H | 1.96
161 | L22V | 2.15
162 | L22W | 1.56
163 | L22T | 1.98
164 | L22E | 2.07
165 | L22R | 1.26
166 | L22Y | 1.83
167 | L22D | 1.87
